According to US20200255511A1 (TILLOTTS PHARMA, published 2020):
Residue numbers refer to the chain shown, from its start. Names may count otherwise.

What was measured:
[1] = target: T1, monomeric His-tagged human FcRn (human, UniProt P55899 24-297; P61769 21-119, limits assumed); assay: SPR (Biacore 3000) at pH 6.0, antibody amine-coupled, monomeric His-tagged hFcRn as analyte, 25 °C; pH 6.0
T1 construct: also called hFcRn
Method: (§1) SPR was performed using a Biacore 3000 instrument with CM5 sensor chips coupled with anti-TNFα IgG1 antibodies (˜500 resonance units (RU)) using amine-coupling chemistry as described by the manufacturer. The coupling was performed by injecting 2.0 ug/mL of each protein in 10 mM sodium acetate, pH 4.5, using the amine-coupling kit (GE Healthcare). […] All SPR experiments were conducted at 25° C. with a flow rate of 40 ul/min. Binding data were zero-adjusted, and reference cell value subtracted. The Langmuir 1:1 ligand binding model provided by the BIAevaluation software (version 4.1) was used to determine the binding kinetics.

CD16a (V) [2] = target: T2, CD16a (V) (UniProt P08637 17-208); assay: SPR (Biacore), His-tagged FcγR captured on anti-His chip, antibody as analyte, 25 °C
T2 construct: Captured by its His-tag
Method: (§2) Affinity to FcγRs was measured by Biacore. A CM5 chip was prepared using standard amine immobilisation Biacore procedures. Upon insertion of a CM5 chip the system was primed and then normalised with BIA-normalizing solution (Biacore Preventative Maintenance Kit 2). The chip was added to the system with PBS-T running buffer; prior to immobilisation the chip surface was primed with three injections of 50 mM NaOH. FcγRs were immobilised on the chip surface using a His-tag capture system. The anti-His tag chip was prepared according to the Biacore kit instructions, with ˜12000 RU's of the antibody deposited on all 4 flow cells. To remove non-covalently bound material from all the chip flow cells, three 30 second 10 mM glycine pH 1.5 washes were performed. The Fcγ receptors were diluted in PBS-T to a range of 0.5-2 μg/mL, with 2.5-5.0 μL injected onto the chip generating capture levels between 60 and 200 RU's. Antibodies were diluted into PBS-T prior to analysis. Single cycle kinetics were used to estimate the steady state affinity. For each single cycle analysis cycle a titration of 5 antibody concentrations were injected over the FcγR ligand and then the dissociation of the complex was measured. The surface was regenerated using the recommended solution, 10 mM glycine pH 1.5 for the anti-His capture surface. A double referencing method was employed in which data from the ligand bound capture surface (fc 2 and 4) were subtracted from the references surfaces where no ligand was captured (fc 1 and 3 respectively). Blank injections of buffer were run for every antibody titration cycle and then subtracted from analyte injection cycles, to correct for small changes in the ligand capture surface. All analysis was performed at 25° C. and the sample rack was incubated at 10° C. during experimental runs. Each experiment was run at least three times.
(§3) The mean and standard deviation affinity calculated from two or more independent experiments is shown.

human TNFα [3] = target: T3, human TNFα (human, UniProt P01375 77-233); assay: SPR (Biacore), antibody captured on Protein A, TNFα as analyte, single cycle kinetics, 25 °C
T3 construct: also called recombinant TNFα
Method: Affinity to TNFα was measured by Biacore. A CM5 chip was prepared using standard amine immobilisation Biacore procedures. Upon insertion of a CM5 chip the system was primed and then normalised with BIA-normalising solution (Biacore Preventative Maintenance Kit 2). The chip was added to the system with PBS-T running buffer; prior to immobilisation the chip surface was primed with three injections of 50 mM NaOH. Protein A was immobilised on the chip surface. For this, the protein was diluted to 5 μg/mL into 10 mM acetate buffer at pH 4.5 and injected so to generate a bound response of ˜1000 RU's in all 4 flow cells. To remove non-covalently bound material from all the chip flow cells, three 15 second 50 mM NaOH washes were performed. On the Protein A chip, antibody was captured in flow cells 2 and 4, with flow cells 1 and 3 used for reference subtraction. The trial antibodies were diluted in PBS-T to 10 nM and 2.5-7.5 uL injected to obtain 120 RU of captured antibody. The analyte TNFα was prepared at 500 μg/mL in water as directed by the supplier and further diluted into the running buffer Phosphate Buffered Saline Tween-20 (PBS-T). Single cycle kinetics was used to estimate the steady state affinity. For each single cycle analysis cycle a titration of 5 analyte concentrations were injected over the ligand and then the dissociation of the complex was measured. The surface was regenerated using glycine pH 1.7. A double referencing method was employed in which data from the ligand bound capture surface (fc 2 and 4) were subtracted from the references surfaces where no ligand was captured (fc 1 and 3 respectively). Blank injections of buffer were run every 3-4 cycles and then subtracted from analyte injection cycles, to correct for small changes in the ligand capture surface. Repeat injections of analyte at the start and end of each analytical run were used to check for sample degradation, or changes in the instrument performance. All analysis was performed at 25° C. and the sample rack was incubated at 10° C. during experimental runs. Each experiment was run at least three times. A 1-to-1 binding model was used to fit the resulting kinetic data.

CD32a (H) = target: T4, CD32a (H) (UniProt P12318 36-218); assay: SPR (Biacore), His-tagged FcγR captured on anti-His chip, antibody as analyte, 25 °C
T4 construct: Captured by its His-tag
T4 sequence (looked up): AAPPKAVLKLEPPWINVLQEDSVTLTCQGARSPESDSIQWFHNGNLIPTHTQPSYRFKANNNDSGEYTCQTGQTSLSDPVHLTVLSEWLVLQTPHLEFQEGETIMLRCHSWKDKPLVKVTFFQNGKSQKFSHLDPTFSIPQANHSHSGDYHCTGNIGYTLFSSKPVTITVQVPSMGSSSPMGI
Method: as §2

CD32b = target: T5, CD32b (UniProt P31994 43-217); assay: as above
T5 construct: Captured by its His-tag
T5 sequence (looked up): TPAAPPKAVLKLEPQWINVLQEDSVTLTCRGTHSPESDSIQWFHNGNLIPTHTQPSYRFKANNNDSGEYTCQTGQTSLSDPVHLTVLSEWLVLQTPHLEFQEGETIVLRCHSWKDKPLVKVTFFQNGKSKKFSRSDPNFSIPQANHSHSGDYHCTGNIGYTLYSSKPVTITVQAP
Method: as §2

CD64 = target: T6, CD64 (UniProt P12314 16-288, limits assumed); assay: as above
T6 construct: Captured on the chip by its His-tag; also called Fcγ receptor CD64
Method: as §2

[4] = target: T1, monomeric His-tagged human FcRn; assay: SPR at pH 6.0, KD against that of Ab-wt; pH 6.0; fold change from Ab-wt
Method: as §1

human C1q = human C1q (human, UniProt P02745 23-245; P02746 28-253; P02747 29-245); assay: ELISA: antibody titrated onto plate-coated human TNFα (1 µg/mL), then human C1q (0.5 µg/mL), detected with rabbit anti-human C1q and HRP anti-rabbit IgG, absorbance 620 nm
Method: ELISA was performed using 96-well MaxiSorp plates where the wells were coated with human TNFα diluted to 1 μg/mL in PBS. After incubation O/N at 4° C., the plates were blocked with PBS containing 4% skimmed milk for 1 h and washed four times with PBS containing 0.05% Tween-20 (PBS-T). Then, titrated amounts of the anti-TNFα IgG antibodies were diluted in PBS-T, added and incubated for 1h at RT. After washing using PBS-T, human C1q (0.5 μg/mL) was diluted in 0.1 M Veronal buffer (0.25 mM CaCl₂ and 0.8 mM MgCl₂ pH 7.2), added to the wells and incubated for 1 h. Subsequently, the wells were washed as above before rabbit anti-human C1q diluted 1:5000 in PBS-T was added to the wells and incubated for 1 h. After washing, an HRP-conjugated anti-rabbit IgG from donkey diluted 1:5000 in PBS-T was added. Subsequently, the wells were washed and 100 μL 3,3′,5,5′-Tetramethylbenzidine substrate was added to each well. The absorbance was measured at 620 nm using a Sunrise spectrophotometer.
The anti-TNFα antibody variants were captured on human TNFα before human C1q was added.

CD16a (F) = target: T7, CD16a (F) (UniProt P08637 17-208); assay: SPR (Biacore), His-tagged FcγR captured on anti-His chip, antibody as analyte, 25 °C
T7 construct: Captured by its His-tag
Method: as §2, §3

CD16b (NA2) = target: T8, CD16b (NA2) (UniProt O75015 17-200, limits assumed); assay: as above
T8 construct: Captured by its His-tag
Method: as §2, §3

[5] = target: T1, monomeric His-tagged human FcRn; assay: SPR at pH 6.0, KD against that of IFX; pH 6.0; fold change from IFX
Method: as §1

human TNFα [6] = target: T3, human TNFα; assay: cell-based or functional assay
CD32a (R) = target: T9, CD32a (R) (UniProt P12318 36-218); assay: SPR (Biacore), His-tagged FcγR captured on anti-His chip, antibody as analyte, 25 °C
T9 construct: Captured by its His-tag
T9 sequence (looked up): T4 sequence (looked up) with H132R
Method: as §2

CD16a (V) [7] = target: T2, CD16a (V); assay: SPR (Biacore), His-tagged FcγR captured; the sentence names no reference (Ab-wt by Table 5)
Method: Affinity to FcγRs was measured by Biacore. A CM5 chip was prepared using standard amine immobilisation Biacore procedures. Upon insertion of a CM5 chip the system was primed and then normalised with BIA-normalizing solution (Biacore Preventative Maintenance Kit 2). The chip was added to the system with PBS-T running buffer; prior to immobilisation the chip surface was primed with three injections of 50 mM NaOH. FcγRs were immobilised on the chip surface using a His-tag capture system. The anti-His tag chip was prepared according to the Biacore kit instructions, with ˜12000 RU's of the antibody deposited on all 4 flow cells. To remove non-covalently bound material from all the chip flow cells, three 30 second 10 mM glycine pH 1.5 washes were performed. The Fcγ receptors were diluted in PBS-T to a range of 0.5-2 μg/mL, with 2.5-5.0 μL injected onto the chip generating capture levels between 60 and 200 RU's. Antibodies were diluted into PBS-T prior to analysis. Single cycle kinetics were used to estimate the steady state affinity. For each single cycle analysis cycle a titration of 5 antibody concentrations were injected over the FcγR ligand and then the dissociation of the complex was measured. The surface was regenerated using the recommended solution, 10 mM glycine pH 1.5 for the anti-His capture surface. […]

T2 sequence (P08637 17-208 F176V limits assumed): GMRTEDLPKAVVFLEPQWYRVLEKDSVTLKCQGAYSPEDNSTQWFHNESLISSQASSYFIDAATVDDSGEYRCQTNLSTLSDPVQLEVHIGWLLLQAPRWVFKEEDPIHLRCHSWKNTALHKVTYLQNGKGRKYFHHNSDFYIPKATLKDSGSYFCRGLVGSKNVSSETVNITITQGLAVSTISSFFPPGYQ
T1 sequence (P55899 24-297 limits assumed, chain 1 of 2): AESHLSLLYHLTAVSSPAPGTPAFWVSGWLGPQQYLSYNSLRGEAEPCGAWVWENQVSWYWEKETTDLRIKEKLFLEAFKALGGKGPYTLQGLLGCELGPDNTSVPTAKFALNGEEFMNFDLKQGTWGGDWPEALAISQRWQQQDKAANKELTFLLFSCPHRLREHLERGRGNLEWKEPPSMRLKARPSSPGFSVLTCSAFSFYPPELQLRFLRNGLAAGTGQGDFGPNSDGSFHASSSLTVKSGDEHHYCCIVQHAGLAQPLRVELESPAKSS
T1 sequence (P61769 21-119 limits assumed, chain 2 of 2): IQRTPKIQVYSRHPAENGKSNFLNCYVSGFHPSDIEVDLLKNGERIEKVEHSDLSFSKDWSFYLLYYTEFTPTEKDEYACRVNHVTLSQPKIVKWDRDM
T6 sequence (P12314 16-288 limits assumed): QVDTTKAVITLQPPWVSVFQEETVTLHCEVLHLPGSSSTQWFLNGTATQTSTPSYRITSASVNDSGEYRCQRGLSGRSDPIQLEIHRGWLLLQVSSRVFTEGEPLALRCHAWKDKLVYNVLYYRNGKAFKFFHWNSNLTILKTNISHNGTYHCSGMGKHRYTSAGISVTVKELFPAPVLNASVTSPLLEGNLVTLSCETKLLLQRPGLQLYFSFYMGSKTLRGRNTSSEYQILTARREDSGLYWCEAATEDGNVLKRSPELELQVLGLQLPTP
Chain of human C1q (P02745 23-245 limits assumed, chain 1 of 3): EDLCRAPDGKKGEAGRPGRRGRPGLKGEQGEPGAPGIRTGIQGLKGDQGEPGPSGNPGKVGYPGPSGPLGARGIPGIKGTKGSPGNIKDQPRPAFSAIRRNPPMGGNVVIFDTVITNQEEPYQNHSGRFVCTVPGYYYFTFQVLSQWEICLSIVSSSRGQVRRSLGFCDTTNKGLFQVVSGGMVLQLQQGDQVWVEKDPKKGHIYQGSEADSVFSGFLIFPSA
Chain of human C1q (P02746 28-253 limits assumed, chain 2 of 3): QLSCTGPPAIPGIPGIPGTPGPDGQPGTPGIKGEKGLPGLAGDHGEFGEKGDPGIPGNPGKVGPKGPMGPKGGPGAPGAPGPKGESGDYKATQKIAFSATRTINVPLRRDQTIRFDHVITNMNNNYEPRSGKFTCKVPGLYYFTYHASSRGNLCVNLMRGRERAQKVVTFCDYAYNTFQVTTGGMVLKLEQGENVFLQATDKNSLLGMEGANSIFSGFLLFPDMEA
Chain of human C1q (P02747 29-245 limits assumed, chain 3 of 3): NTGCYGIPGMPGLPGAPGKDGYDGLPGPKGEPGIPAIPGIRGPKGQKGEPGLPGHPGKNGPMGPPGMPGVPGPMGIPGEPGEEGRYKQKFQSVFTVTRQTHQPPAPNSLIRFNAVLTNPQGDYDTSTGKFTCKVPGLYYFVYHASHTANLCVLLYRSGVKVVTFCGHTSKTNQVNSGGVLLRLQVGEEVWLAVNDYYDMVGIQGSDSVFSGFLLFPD
T3 sequence (P01375 77-233 limits assumed): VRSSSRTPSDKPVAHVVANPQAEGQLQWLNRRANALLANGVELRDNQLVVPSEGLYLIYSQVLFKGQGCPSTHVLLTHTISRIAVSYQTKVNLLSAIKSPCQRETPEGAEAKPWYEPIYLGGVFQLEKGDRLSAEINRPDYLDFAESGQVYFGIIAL
T8 sequence (O75015 17-200 N65S limits assumed): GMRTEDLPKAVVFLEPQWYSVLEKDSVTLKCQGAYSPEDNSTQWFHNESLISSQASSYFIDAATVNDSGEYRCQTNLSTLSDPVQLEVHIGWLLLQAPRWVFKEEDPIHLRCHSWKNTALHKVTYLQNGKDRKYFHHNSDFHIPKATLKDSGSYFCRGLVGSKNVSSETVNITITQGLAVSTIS
T7 sequence (P08637 17-208 limits assumed): as the sequence (P08637 17-208 F176V limits assumed) above, with V160F counted along it

B1: Ab-wt (antibody, human IgG1, kappa)
heavy: not shown
light: DIQMTQSPSSLSASVGDRVTIKCQASQSIFSGLAWYQQKPGKAPKLLIYGASKLASGVPSRFSGSGSGTEFTLTISGLQPADFATYYCQSYYYSSSSSDGSYAFGGGTKLTVLGRTVAAPSVFIFPPSDEQLKSGTASVVCLLNNFYPREAKVQWKVDNALQSGNSQESVTEQDSKDSTYSLSSTLTLSKADYEKHKVYACEVTHQGLSSPVTKSFNRGEC
notes: Human IgG1 anti-TNFα antibody with wild-type Fc; also called parent antibody; wild-type antibody
- Kd [1]: 1000 nM
- Kd (CD16a (V) [2]): 184 nM
- Kd (human TNFα [3]): 0.00413 nM
- koff (human TNFα [3]): 3.45e-05 s⁻¹
- kon (human TNFα [3]): 8.37e+06 M⁻¹ s⁻¹
- Kd (CD32a (H)): 670 nM
- Kd (CD32b): 3140 nM
- Kd (CD64): 2.92 nM

B2: Ab-AA (antibody, human IgG1, kappa)
heavy: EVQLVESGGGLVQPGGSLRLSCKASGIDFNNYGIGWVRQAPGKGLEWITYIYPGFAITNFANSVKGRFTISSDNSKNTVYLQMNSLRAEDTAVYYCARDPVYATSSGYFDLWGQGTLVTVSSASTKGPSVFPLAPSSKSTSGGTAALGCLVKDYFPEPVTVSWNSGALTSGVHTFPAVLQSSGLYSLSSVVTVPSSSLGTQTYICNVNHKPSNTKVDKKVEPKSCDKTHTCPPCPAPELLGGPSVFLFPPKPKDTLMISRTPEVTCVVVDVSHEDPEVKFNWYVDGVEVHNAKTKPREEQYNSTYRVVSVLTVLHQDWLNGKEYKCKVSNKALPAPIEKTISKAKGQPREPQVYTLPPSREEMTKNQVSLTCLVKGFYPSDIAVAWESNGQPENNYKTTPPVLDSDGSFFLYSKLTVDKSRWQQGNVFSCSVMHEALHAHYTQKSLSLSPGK
light: B1 light
notes: Human IgG1; also called E380A/N434A variant
- Kd [1]: 119 nM
- Fold change from wt [4]: 8.4 fold
- EC50 (read off the curve) (human C1q): ~0.6 µg/mL
- Kd (CD16a (F)): 1760 nM
- Kd (CD16a (V) [2]): 707 nM
- Kd (CD16b (NA2)): 2240 nM
- Fold change from IFX [5]: 3.6 fold
- Kd (human TNFα [3]): 0.00247 nM
- koff (human TNFα [3]): 2.06e-05 s⁻¹
- kon (human TNFα [3]): 8.54e+06 M⁻¹ s⁻¹
- IC50 (read off the curve) (human TNFα [6]): ~0.008 µg/mL
- Kd (CD32a (H)): 1410 nM
- Kd (CD32a (R)): 2050 nM
- Kd (CD32b): 2170 nM
- Kd (CD64): 3.59 nM

B3: Ab-AA-2FF (antibody, human IgG1, kappa)
heavy: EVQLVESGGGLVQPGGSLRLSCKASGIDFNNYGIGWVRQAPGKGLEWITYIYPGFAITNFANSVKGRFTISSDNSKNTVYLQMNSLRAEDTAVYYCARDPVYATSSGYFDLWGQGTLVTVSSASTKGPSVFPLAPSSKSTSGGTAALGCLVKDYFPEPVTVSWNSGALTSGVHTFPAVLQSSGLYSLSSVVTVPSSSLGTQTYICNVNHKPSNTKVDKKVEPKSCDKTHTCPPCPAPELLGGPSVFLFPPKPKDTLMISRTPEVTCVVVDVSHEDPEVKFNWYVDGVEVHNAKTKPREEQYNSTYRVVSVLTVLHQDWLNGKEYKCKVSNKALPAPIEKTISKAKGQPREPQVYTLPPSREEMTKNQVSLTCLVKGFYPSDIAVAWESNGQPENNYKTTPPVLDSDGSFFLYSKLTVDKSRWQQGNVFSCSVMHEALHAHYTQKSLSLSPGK
light: B1 light
modifications: N-glycans at N297 (EU) with greatly reduced fucose (<10% fucosylated); produced in the presence of 2-deoxy-2-fluoro-fucose (2FF)
notes: human IgG1; also called non-fucosylated variant of Ab-AA
- Kd [1]: 103 nM
- fold increase in affinity (CD16a (V) [7]): 4.7 fold
- Fold change from wt [4]: 9.7 fold
- EC50 (read off the curve) (human C1q): ~0.7 µg/mL
- Kd (CD16a (F)): 170 nM
- Kd (CD16a (V) [2]): 39.4 nM
- Kd (CD16b (NA2)): 470 nM
- Fold change from IFX [5]: 4.1 fold
- Kd (human TNFα [3]): 0.00773 nM
- koff (human TNFα [3]): 5.84e-05 s⁻¹
- kon (human TNFα [3]): 7.55e+06 M⁻¹ s⁻¹
- IC50 (read off the curve) (human TNFα [6]): ~0.008 µg/mL
- Kd (CD32a (H)): 1170 nM
- Kd (CD32a (R)): 1560 nM
- Kd (CD32b): 1370 nM
- Kd (CD64): 3.17 nM

B4: infliximab (antibody)
chain 1: not shown
chain 2: DILLTQSPAILSVSPGERVSFSCRASQFVGSSIHWYQQRTNGSPRLLIKYASESMSGIPSRFSGSGSGTDFTLSINTVESEDIADYYCQQSHSWPFTFGSGTNLEVKRTVAAPSVFIFPPSDEQLKSGTASVVCLLNNFYPREAKVQWKVDNALQSGNSQESVTEQDSKDSTYSLSSTLTLSKADYEKHKVYACEVTHQGLSSPVTKSFNRGEC
- EC50 (read off the curve) (human C1q): ~0.6 µg/mL
